Patent publication US20190233519A1 (NANJING LEGEND BIOTECH, published 2019)
Blank lines part the entries; values can stand above or below the binder they belong to.

Experiments:
[1] = molecular target: T1, biotin-labeled hCTLA-4/Fc protein (human, UniProt P16410 37-161, biotin label in the FACS competition assays (sites not given)); test: FACS competition, biotin hCTLA-4-Fc on CHO cells expressing human B7-1
T1 construct: also called CTLA-4 ECD (CTLA-4-Fc); CTLA-4-Fc (GenScript, Z03373-50)

PD-1-His protein = molecular target: T2, PD-1-His protein (UniProt Q15116 25-167, limits assumed); test: SPR, antibody captured by Fc, PD-1-His as analyte
T2 construct: not shown: His tag

[2] = molecular target: T3, human PD-1 expressed on CHO cells (human, UniProt Q15116 25-288); test: FACS on CHO cells expressing human PD-1
T3 construct: whole, on cells; Also used here for PD-1 on primary T cells (MLR) and on reporter Jurkat cells in the functional rows; also called CHO cells expressing human PD-1
Protocol: (§1) CHO cells expressing human PD-1 were dissociated from adherent culture flasks and mixed with varying concentrations of antibodies (both in a 96-well plate). […] Human IgG was used as a negative binding control. The mixture was equilibrated for 30 minutes at room temperature, washed three times with FACS buffer (PBS containing 1% BSA). FITC-conjugated anti-human kappa antibody (Jackson ImmunoResearch) used as secondary antibody was then added and incubated for 15 minutes at room temperature. Cells were washed again with FACS buffer and analyzed by flow cytometry. Data were analyzed with Prism (GraphPad Software, San Diego, Calif.) using non-linear regression, and EC₅₀ values were calculated.
BABP samples were prepared (starting at 1 μM, 3-fold serial dilution with 10 concentrations) as primary antibodies for FACS analysis.

[3] = molecular target: T3, human PD-1 expressed on CHO cells; test: FACS competition, biotin hPD-L1-Fc on CHO cells expressing human PD-1
Protocol: The mixture was equilibrated for 30 minutes at room temperature, and washed three times with FACS buffer (PBS containing 1% BSA). PE/Cy5 Streptavidin secondary antibody was then added to the mixtures and incubated for 15 minutes at room temperature. Subsequently, the cells were washed with FACS buffer and analyzed by flow cytometry.

CTLA-4-His protein [4] = molecular target: T4, CTLA-4-His protein (Homo sapiens (Human), UniProt P16410 37-161); test: SPR, antibody captured by Fc, CTLA-4-His as analyte
T4 construct: also called CTLA-4-His fusion protein; not shown: His tag

[5] = molecular target: T5, human CTLA-4 expressed on CHO cells (human, UniProt P16410 37-223); test: FACS on CHO cells expressing human CTLA-4
T5 construct: also called CHO cells expressing human CTLA-4; CTLA-4 expressing CHO cells
Protocol: (§2) Binding of HCAbs to human CTLA-4 expressed on CHO cells was determined using a fluorescence-activated cell sorting (FACS)-based assay. CHO cells expressing human CTLA-4 were dissociated from adherent culture flasks and mixed with varying concentrations of antibodies (in a 96-well plate). […] The mixture was equilibrated for 30 minutes at room temperature, then washed three times with FACS buffer (PBS containing 1% BSA). Fluorescein isothiocyanate (FITC)-conjugated anti-human κ antibody (Jackson ImmunoResearch) was then added and incubated for 15 minutes at room temperature, serving as a secondary antibody. Cells were washed again with FACS buffer and analyzed by flow cytometry. Data were analyzed with Prism (GraphPad Software, San Diego, Calif.) using non-linear regression, and EC₅₀ values were calculated.
BABP samples were prepared (starting at 1 μM, 3-fold serial dilution with 10 concentrations) as primary antibody for FACS analysis.

CTLA-4-His protein [6] = molecular target: T4, CTLA-4-His protein; test: SPR, antibody immobilised on CM5, CTLA-4-His as analyte
CTLA-4-His protein [7] = molecular target: T4, CTLA-4-His protein; test: SPR, antibody immobilised, CTLA-4-His as analyte
[8] = molecular target: T3, human PD-1 expressed on CHO cells; test: FACS on CHO cells expressing human PD-1; remark: listed apart in the source
Protocol: as §1

[9] = molecular target: T5, human CTLA-4 expressed on CHO cells; test: FACS on CHO cells expressing human CTLA-4; remark: listed apart in the source
Protocol: as §2

CTLA-4-His protein [10] = molecular target: T4, CTLA-4-His protein; test: SPR, CTLA-4-His immobilised, HCAb as analyte at 5-160 nM
Protocol: Binding kinetics of anti-CTLA-4 HCAbs were determined using a Surface Plasmon Resonance (SPR) biosensor, Biacore T200 (GE Healthcare). Antigen CTLA-4-His fusion protein was immobilized on the sensor chip. […] The data of dissociation (kd) and association (kₐ) rate constants were obtained using Biacore T200 evaluation software. The apparent equilibrium dissociation constants (KD) were calculated from the ratio of kd/kₐ.

[11] = molecular target: T1, biotin-labeled hCTLA-4/Fc protein; test: FACS competition, biotin hCTLA-4/Fc on CHO cells expressing human B7-1
Protocol: Blockade of ligand binding was studied using flow cytometry. […] The mixture was equilibrated for 30 minutes at room temperature, washed three times with FACS buffer (PBS containing 1% BSA). PE/Cy5 Streptavidin secondary antibody was then added and incubated for 15 minutes at room temperature. Cells were washed again with FACS buffer and analyzed by flow cytometry. Data were analyzed with Prism (GraphPad Software, San Diego, Calif.) using non-linear regression, and IC₅₀ values were calculated.

T5 sequence (P16410 37-223): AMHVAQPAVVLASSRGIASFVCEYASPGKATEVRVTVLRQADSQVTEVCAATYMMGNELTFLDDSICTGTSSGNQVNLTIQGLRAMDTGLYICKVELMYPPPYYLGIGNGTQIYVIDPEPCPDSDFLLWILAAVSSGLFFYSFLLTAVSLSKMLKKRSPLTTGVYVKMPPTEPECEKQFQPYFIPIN
T2 sequence (Q15116 25-167 limits assumed): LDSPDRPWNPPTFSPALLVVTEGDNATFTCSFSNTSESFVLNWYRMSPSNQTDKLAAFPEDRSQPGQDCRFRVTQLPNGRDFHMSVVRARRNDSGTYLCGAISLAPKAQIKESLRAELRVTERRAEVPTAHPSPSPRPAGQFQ
T3 sequence (Q15116 25-288): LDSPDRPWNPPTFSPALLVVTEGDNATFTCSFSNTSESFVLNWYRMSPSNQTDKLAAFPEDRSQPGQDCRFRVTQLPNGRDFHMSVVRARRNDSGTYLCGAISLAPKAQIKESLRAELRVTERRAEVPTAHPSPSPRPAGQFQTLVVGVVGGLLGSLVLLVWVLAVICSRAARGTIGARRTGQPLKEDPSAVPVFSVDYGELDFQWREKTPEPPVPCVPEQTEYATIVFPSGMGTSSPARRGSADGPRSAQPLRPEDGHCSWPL
T1 sequence (P16410 37-161): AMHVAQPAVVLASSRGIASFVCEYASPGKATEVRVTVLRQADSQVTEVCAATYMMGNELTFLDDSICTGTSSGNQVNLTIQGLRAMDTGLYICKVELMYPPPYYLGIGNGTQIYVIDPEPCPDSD
T4 sequence (P16410 37-161 limits assumed): as the sequence (P16410 37-161) above

B2: BCP-2 (BCP-K311) (Keytruda-9GS-A34311) (bispecific antibody, human IgG4 S228P, kappa)
heavy: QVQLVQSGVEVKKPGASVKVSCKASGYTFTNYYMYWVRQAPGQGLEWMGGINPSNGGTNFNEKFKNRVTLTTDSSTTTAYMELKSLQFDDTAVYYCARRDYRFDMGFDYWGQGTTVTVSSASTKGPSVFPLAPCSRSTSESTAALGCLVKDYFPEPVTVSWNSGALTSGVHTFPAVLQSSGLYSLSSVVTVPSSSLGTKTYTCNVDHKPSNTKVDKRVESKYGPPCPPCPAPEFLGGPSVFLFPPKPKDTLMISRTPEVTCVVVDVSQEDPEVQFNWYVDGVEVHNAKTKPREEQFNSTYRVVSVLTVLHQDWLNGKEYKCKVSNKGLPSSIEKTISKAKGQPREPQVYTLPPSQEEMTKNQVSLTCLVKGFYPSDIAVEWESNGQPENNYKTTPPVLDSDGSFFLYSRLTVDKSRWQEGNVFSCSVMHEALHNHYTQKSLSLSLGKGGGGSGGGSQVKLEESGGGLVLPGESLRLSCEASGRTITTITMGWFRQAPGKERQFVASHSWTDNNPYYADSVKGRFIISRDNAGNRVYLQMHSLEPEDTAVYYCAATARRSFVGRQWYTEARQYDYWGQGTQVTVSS
light: EIVLTQSPATLSLSPGERATLSCRASKGVSTSGYSYLHWYQQKPGQAPRLLIYLASYLESGVPARFSGSGSGTDFTLTISSLEPEDFAVYYCQHSRDLPLTFGGGTKVEIKRTVAAPSVFIFPPSDEQLKSGTASVVCLLNNFYPREAKVQWKVDNALQSGNSQESVTEQDSKDSTYSLSSTLTLSKADYEKHKVYACEVTHQGLSSPVTKSFNRGEC
IC50 [1]: 11.7 nM
Kd (PD-1-His protein): 5.3 nM
EC50 [2]: 5.2 nM
IC50 [3]: 2.3 nM
Kd (CTLA-4-His protein [4]): 11 nM
EC50 [5]: 16.4 nM

B3: BCP-32 (A34311-9GS linker-A34311-9GS linker-Keytruda) (bispecific antibody, human IgG4 S228P, kappa)
heavy: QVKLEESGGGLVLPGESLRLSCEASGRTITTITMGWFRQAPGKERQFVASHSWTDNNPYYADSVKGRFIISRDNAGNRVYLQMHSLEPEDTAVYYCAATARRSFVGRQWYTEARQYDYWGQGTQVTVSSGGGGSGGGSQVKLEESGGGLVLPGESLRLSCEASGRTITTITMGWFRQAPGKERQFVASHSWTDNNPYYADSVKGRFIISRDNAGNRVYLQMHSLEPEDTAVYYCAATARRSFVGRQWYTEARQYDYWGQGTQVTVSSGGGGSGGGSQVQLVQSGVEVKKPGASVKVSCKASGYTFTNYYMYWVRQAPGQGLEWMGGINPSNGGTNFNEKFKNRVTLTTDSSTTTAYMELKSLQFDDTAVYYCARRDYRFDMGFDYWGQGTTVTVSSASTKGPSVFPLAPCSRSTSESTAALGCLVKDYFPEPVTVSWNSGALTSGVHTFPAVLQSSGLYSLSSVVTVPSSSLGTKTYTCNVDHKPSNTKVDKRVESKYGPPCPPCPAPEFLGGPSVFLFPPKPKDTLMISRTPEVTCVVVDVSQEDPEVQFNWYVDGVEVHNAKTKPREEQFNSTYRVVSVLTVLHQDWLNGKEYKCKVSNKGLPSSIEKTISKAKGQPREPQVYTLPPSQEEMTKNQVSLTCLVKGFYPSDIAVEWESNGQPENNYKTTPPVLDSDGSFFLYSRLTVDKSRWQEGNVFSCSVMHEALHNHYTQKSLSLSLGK
light: B2 light
IC50 [1]: 14.6 nM
Kd (PD-1-His protein): 7.5 nM
EC50 [2]: 8.1 nM
IC50 [3]: 4.3 nM
Kd (CTLA-4-His protein [4]): 4.1 nM
EC50 [5]: 71.7 nM

B5: BCP-311K (A34311-9GS-Keytruda) (bispecific antibody, human IgG4 S228P, kappa)
heavy: not shown
light: B2 light
binding result (CTLA-4-His protein [6]): binds

B6: BCP-75 (AS07189TKDVH11-mutated hIgG1 hinge-Keytruda) (bispecific antibody)
heavy: not shown
light: B2 light
binding result (CTLA-4-His protein [7]): binds
binding result [8]: binds
binding result [9]: binds

B7: BCP-74 (AS07014VH11-mutated hIgG1 hinge-Keytruda) (bispecific antibody)
heavy: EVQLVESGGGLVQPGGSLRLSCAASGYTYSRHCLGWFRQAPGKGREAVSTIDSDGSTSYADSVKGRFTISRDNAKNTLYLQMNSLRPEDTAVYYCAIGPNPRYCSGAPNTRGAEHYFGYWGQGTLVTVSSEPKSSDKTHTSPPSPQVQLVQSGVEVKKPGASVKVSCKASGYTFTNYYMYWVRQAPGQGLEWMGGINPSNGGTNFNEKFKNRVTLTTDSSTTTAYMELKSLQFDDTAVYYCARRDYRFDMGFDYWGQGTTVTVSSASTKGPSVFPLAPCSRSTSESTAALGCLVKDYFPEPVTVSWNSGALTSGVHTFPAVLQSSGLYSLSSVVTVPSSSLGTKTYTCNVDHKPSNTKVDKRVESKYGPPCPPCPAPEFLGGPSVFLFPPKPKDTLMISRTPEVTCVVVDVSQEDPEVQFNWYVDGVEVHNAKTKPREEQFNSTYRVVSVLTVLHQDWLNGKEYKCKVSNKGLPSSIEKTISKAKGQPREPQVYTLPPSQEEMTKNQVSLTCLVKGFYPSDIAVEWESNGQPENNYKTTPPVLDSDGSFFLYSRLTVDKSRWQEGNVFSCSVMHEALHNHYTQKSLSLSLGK
light: B2 light
binding result (CTLA-4-His protein [7]): binds
binding result [8]: binds
binding result [9]: binds

B11: BCP-17 (Keytruda-hIgG1 hinge-A34311) (bispecific antibody)
heavy: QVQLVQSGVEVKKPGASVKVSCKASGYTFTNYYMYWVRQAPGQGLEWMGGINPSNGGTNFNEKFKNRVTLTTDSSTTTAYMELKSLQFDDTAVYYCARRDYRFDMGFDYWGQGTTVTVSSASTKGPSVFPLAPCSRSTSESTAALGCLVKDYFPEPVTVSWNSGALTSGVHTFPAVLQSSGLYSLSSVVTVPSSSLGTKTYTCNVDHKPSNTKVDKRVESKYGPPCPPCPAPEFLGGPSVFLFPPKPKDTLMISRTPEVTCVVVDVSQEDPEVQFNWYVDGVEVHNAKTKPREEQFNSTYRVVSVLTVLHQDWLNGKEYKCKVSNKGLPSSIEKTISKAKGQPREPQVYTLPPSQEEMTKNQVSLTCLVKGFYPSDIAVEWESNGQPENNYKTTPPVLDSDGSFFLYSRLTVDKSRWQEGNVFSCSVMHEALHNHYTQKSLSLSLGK
light: EIVLTQSPATLSLSPGERATLSCRASKGVSTSGYSYLHWYQQKPGQAPRLLIYLASYLESGVPARFSGSGSGTDFTLTISSLEPEDFAVYYCQHSRDLPLTFGGGTKVEIKRTVAAPSVFIFPPSDEQLKSGTASVVCLLNNFYPREAKVQWKVDNALQSGNSQESVTEQDSKDSTYSLSSTLTLSKADYEKHKVYACEVTHQGLSSPVTKSFNRGECEPKSCDKTHTCPPCPQVKLEESGGGLVLPGESLRLSCEASGRTITTITMGWFRQAPGKERQFVASHSWTDNNPYYADSVKGRFIISRDNAGNRVYLQMHSLEPEDTAVYYCAATARRSFVGRQWYTEARQYDYWGQGTQVTVSS
IC50 [1]: 33.3 nM
Kd (PD-1-His protein): 3.9 nM
EC50 [2]: 2.7 nM
IC50 [3]: 4 nM
Kd (CTLA-4-His protein [4]): 39.3 nM
EC50 [5]: 17.7 nM

B12: BCP-35 (Keytruda-Fab VH-CH1-hIgG1 hinge-A34311-CH1-IgG4 Fc, Keytruda-Fab VL-CL-hIgG1 hinge-A34311-CL) (bispecific antibody)
heavy: not shown
light: EIVLTQSPATLSLSPGERATLSCRASKGVSTSGYSYLHWYQQKPGQAPRLLIYLASYLESGVPARFSGSGSGTDFTLTISSLEPEDFAVYYCQHSRDLPLTFGGGTKVEIKRTVAAPSVFIFPPSDEQLKSGTASVVCLLNNFYPREAKVQWKVDNALQSGNSQESVTEQDSKDSTYSLSSTLTLSKADYEKHKVYACEVTHQGLSSPVTKSFNRGECEPKSCDKTHTCPPCPQVKLEESGGGLVLPGESLRLSCEASGRTITTITMGWFRQAPGKERQFVASHSWTDNNPYYADSVKGRFIISRDNAGNRVYLQMHSLEPEDTAVYYCAATARRSFVGRQWYTEARQYDYWGQGTQVTVSSRTVAAPSVFIFPPSDEQLKSGTASVVCLLNNFYPREAKVQWKVDNALQSGNSQESVTEQDSKDSTYSLSSTLTLSKADYEKHKVYACEVTHQGLSSPVTKSFNRGEC
IC50 [1]: 17.5 nM
Kd (PD-1-His protein): 7.3 nM
EC50 [2]: 3 nM
IC50 [3]: 4.6 nM
Kd (CTLA-4-His protein [4]): 7.2 nM
EC50 [5]: 20.4 nM

B13: AS07189 HCAb (Fc fusion)
heavy: QVQLVESGGGSVQAGGSLRLSCAASGDSPSVNYMGWFRRAPEKQREQREEVASIYPTGGTFYTDSVKGRFTISRDNAKNTLYLQMTALKPEDTAMYYCAAGKWGTDYWGQGTQVIVSS
notes: not shown: human IgG1 Fc
binding result (CTLA-4-His protein [10]): binds

Results, then the binder that gave them:

IC50 [1]: 15.3 nM
Kd (PD-1-His protein): 8 nM
EC50 [2]: 3.4 nM
IC50 [3]: 5.7 nM
Kd (CTLA-4-His protein [4]): 4.3 nM
EC50 [5]: 31.2 nM
B1: BCP-31 (A34311-9GS linker-Keytruda) (bispecific antibody, human IgG4 S228P, kappa)
heavy: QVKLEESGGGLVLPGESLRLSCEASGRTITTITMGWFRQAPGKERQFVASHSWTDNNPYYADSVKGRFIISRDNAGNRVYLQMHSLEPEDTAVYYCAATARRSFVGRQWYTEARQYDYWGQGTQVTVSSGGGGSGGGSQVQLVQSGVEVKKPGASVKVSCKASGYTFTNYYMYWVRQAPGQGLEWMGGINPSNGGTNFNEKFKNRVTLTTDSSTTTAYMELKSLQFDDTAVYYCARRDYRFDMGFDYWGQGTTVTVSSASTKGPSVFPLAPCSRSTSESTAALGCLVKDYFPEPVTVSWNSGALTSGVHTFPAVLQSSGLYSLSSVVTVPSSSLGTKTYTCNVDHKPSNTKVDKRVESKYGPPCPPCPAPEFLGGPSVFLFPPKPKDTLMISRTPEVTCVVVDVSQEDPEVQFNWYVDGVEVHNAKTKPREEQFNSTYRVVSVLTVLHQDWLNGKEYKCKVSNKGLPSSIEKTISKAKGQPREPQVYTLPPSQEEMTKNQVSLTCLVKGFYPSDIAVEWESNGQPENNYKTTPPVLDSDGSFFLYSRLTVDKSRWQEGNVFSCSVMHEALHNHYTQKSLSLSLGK
light: QVKLEESGGGLVLPGESLRLSCEASGRTITTITMGWFRQAPGKERQFVASHSWTDNNPYYADSVKGRFIISRDNAGNRVYLQMHSLEPEDTAVYYCAATARRSFVGRQWYTEARQYDYWGQGTQVTVSSGGGGSGGGSEIVLTQSPATLSLSPGERATLSCRASKGVSTSGYSYLHWYQQKPGQAPRLLIYLASYLESGVPARFSGSGSGTDFTLTISSLEPEDFAVYYCQHSRDLPLTFGGGTKVEIKRTVAAPSVFIFPPSDEQLKSGTASVVCLLNNFYPREAKVQWKVDNALQSGNSQESVTEQDSKDSTYSLSSTLTLSKADYEKHKVYACEVTHQGLSSPVTKSFNRGEC

IC50 [1]: 26.3 nM
Kd (PD-1-His protein): 8.1 nM
EC50 [2]: 1.5 nM
IC50 [3]: 2 nM
Kd (CTLA-4-His protein [4]): 9.2 nM
EC50 [5]: 48 nM
B4: BCP-33 (Keytruda-Fab VH-CH1-hIgG1 hinge-A34311-IgG1 Fc) (bispecific antibody)
heavy: not shown
light: B2 light

binding result (CTLA-4-His protein [7]): binds
binding result [8]: binds
binding result [9]: binds
B8: BCP-73 (A34311VH11-mutated hIgG1 hinge-Keytruda) (bispecific antibody)
heavy: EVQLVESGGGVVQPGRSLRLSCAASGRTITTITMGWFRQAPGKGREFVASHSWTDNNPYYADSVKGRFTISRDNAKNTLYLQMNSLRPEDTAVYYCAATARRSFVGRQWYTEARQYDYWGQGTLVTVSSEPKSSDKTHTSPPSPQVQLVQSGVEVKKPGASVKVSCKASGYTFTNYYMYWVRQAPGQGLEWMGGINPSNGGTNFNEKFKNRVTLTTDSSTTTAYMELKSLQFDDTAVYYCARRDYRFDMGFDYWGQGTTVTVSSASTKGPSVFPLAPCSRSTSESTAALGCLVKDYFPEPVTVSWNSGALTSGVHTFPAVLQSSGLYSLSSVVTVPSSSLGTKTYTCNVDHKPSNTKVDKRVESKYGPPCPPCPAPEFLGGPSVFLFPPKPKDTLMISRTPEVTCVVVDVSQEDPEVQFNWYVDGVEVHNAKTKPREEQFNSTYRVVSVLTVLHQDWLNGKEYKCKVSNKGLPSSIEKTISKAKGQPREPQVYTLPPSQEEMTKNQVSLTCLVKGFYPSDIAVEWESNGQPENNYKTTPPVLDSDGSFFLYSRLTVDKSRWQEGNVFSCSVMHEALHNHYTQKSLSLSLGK
light: B2 light

binding result (CTLA-4-His protein [10]): binds
B9: AS07014 HCAb (Fc fusion)
heavy: QVHLVESGGGSVQAGGSLRLSCAASGYTYSRHCLGWFRQTPGKEREAVATIDSDGSTSYADSVKGRFTISSDNAKNTLYLQMNSLKPEDTAMYYCAIGPNPRYCSGAPNTRGAEHYFGYWAQGTQVTVSS
notes: not shown: human IgG1 Fc

IC50 [1]: 8.6 nM
Kd (PD-1-His protein): 3.9 nM
EC50 [2]: 12.2 nM
IC50 [3]: 8.8 nM
Kd (CTLA-4-His protein [4]): 4.8 nM
EC50 [5]: 26.6 nM
B10: BCP-16 (A34311-hIgG1 hinge-Keytruda) (bispecific antibody)
heavy: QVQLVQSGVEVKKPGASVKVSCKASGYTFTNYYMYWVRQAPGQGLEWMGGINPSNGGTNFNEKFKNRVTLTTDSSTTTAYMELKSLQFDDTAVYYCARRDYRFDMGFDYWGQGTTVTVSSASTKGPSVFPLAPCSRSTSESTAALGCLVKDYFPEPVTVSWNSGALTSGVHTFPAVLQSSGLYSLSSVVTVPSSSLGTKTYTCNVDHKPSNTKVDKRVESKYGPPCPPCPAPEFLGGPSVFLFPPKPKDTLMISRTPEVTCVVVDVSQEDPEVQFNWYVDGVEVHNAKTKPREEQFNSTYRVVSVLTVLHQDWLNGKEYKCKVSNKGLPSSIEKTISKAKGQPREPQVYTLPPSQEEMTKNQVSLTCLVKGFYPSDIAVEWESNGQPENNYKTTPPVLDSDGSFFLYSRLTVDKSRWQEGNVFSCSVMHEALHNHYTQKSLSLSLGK
light: QVKLEESGGGLVLPGESLRLSCEASGRTITTITMGWFRQAPGKERQFVASHSWTDNNPYYADSVKGRFIISRDNAGNRVYLQMHSLEPEDTAVYYCAATARRSFVGRQWYTEARQYDYWGQGTQVTVSSEPKSCDKTHTCPPCPEIVLTQSPATLSLSPGERATLSCRASKGVSTSGYSYLHWYQQKPGQAPRLLIYLASYLESGVPARFSGSGSGTDFTLTISSLEPEDFAVYYCQHSRDLPLTFGGGTKVEIKRTVAAPSVFIFPPSDEQLKSGTASVVCLLNNFYPREAKVQWKVDNALQSGNSQESVTEQDSKDSTYSLSSTLTLSKADYEKHKVYACEVTHQGLSSPVTKSFNRGEC

EC50 [11]: ~14.5 nM
B14: A34311 sdAb (VHH)
VHH: QVKLEESGGGLVLPGESLRLSCEASGRTITTITMGWFRQAPGKERQFVASHSWTDNNPYYADSVKGRFIISRDNAGNRVYLQMHSLEPEDTAVYYCAATARRSFVGRQWYTEARQYDYWGQGTQVTVSS
notes: also called A34311 (WT)

IC50 [1]: 17.9 nM
Kd (PD-1-His protein): 8.3 nM
EC50 [2]: 1.8 nM
IC50 [3]: 2 nM
Kd (CTLA-4-His protein [4]): 6.1 nM
EC50 [5]: 26.4 nM
B15: BCP-36 (Keytruda-scFv-hIgG1 hinge-A34311-CH1-IgG1 Fc, A34311-CL as light chain fusion polypeptide) (bispecific antibody)
heavy: not shown
light: QVKLEESGGGLVLPGESLRLSCEASGRTITTITMGWFRQAPGKERQFVASHSWTDNNPYYADSVKGRFIISRDNAGNRVYLQMHSLEPEDTAVYYCAATARRSFVGRQWYTEARQYDYWGQGTQVTVSSRTVAAPSVFIFPPSDEQLKSGTASVVCLLNNFYPREAKVQWKVDNALQSGNSQESVTEQDSKDSTYSLSSTLTLSKADYEKHKVYACEVTHQGLSSPVTKSFNRGEC
